Experimental data published in patent US20230220589A1.

Legend:
[1] = target: M44-modified E NTAA target peptides; test: encoding assay; P2 P
[2] = target: M44-modified Y NTAA target peptides (M44-Y-P2-peptide); test: encoding assay; P2 P
[3] = target: M44-modified A NTAA target peptides (M44-A-P2-peptide); test: encoding assay; P2 P
[4] = target: M44-modified Q NTAA target peptides; test: encoding assay; P2 P
[5] = target: M44-modified F NTAA target peptides (M44-F-P2-peptide); test: encoding assay; P2 P
[6] = target: M44-modified I NTAA target peptides (M44-I-P2-peptide); test: encoding assay; P2 P
[7] = target: M44-modified M NTAA target peptides; test: encoding assay; P2 P
[8] = target: M44-modified S NTAA target peptides; test: encoding assay; P2 P
[9] = target: M44-modified H NTAA target peptides; test: encoding assay; P2 P
[10] = target: M44-modified N NTAA target peptides; test: encoding assay; P2 P
[11] = target: M44-modified L NTAA target peptides (M44-L-P2-peptide); test: encoding assay; P2 P
[12] = target: M44-modified D NTAA target peptides; test: encoding assay; P2 P
[13] = target: M44-modified A NTAA target peptides (M44-A-P2-peptide); test: encoding assay; P2 T
[14] = target: M44-modified Q NTAA target peptides; test: encoding assay; P2 T
[15] = target: M44-modified F NTAA target peptides (M44-F-P2-peptide); test: encoding assay; P2 T
[16] = target: M44-modified P NTAA target peptides; test: encoding assay; P2 T
[17] = target: M44-modified M NTAA target peptides; test: encoding assay; P2 T
[18] = target: M44-modified N NTAA target peptides; test: encoding assay; P2 T
[19] = target: M44-modified H NTAA target peptides; test: encoding assay; P2 V
[20] = target: M44-modified E NTAA target peptides; test: encoding assay; P2 I
[21] = target: M44-modified Y NTAA target peptides (M44-Y-P2-peptide); test: encoding assay; P2 I
[22] = target: M44-modified A NTAA target peptides (M44-A-P2-peptide); test: encoding assay; P2 I
[23] = target: M44-modified G NTAA target peptides (M44-G-P2-peptide); test: encoding assay; P2 I
[24] = target: M44-modified Q NTAA target peptides; test: encoding assay; P2 I
[25] = target: M44-modified F NTAA target peptides (M44-F-P2-peptide); test: encoding assay; P2 I
[26] = target: M44-modified T NTAA target peptides; test: encoding assay; P2 I
[27] = target: M44-modified I NTAA target peptides (M44-I-P2-peptide); test: encoding assay; P2 I
[28] = target: M44-modified M NTAA target peptides; test: encoding assay; P2 I
[29] = target: M44-modified S NTAA target peptides; test: encoding assay; P2 I
[30] = target: M44-modified W NTAA target peptides; test: encoding assay; P2 I
[31] = target: M44-modified H NTAA target peptides; test: encoding assay; P2 I
[32] = target: M44-modified N NTAA target peptides; test: encoding assay; P2 I
[33] = target: M44-modified V NTAA target peptides; test: encoding assay; P2 I
[34] = target: M44-modified L NTAA target peptides (M44-L-P2-peptide); test: encoding assay; P2 I
[35] = target: M44-modified D NTAA target peptides; test: encoding assay; P2 I
[36] = target: M44-modified E NTAA target peptides; test: encoding assay; P2 E
[37] = target: M44-modified Y NTAA target peptides (M44-Y-P2-peptide); test: encoding assay; P2 E
[38] = target: M44-modified A NTAA target peptides (M44-A-P2-peptide); test: encoding assay; P2 E
[39] = target: M44-modified Q NTAA target peptides; test: encoding assay; P2 E
[40] = target: M44-modified F NTAA target peptides (M44-F-P2-peptide); test: encoding assay; P2 E
[41] = target: M44-modified P NTAA target peptides; test: encoding assay; P2 E
[42] = target: M44-modified T NTAA target peptides; test: encoding assay; P2 E
[43] = target: M44-modified I NTAA target peptides (M44-I-P2-peptide); test: encoding assay; P2 E
[44] = target: M44-modified M NTAA target peptides; test: encoding assay; P2 E
[45] = target: M44-modified S NTAA target peptides; test: encoding assay; P2 E
[46] = target: M44-modified W NTAA target peptides; test: encoding assay; P2 E
[47] = target: M44-modified H NTAA target peptides; test: encoding assay; P2 E
[48] = target: M44-modified N NTAA target peptides; test: encoding assay; P2 E
[49] = target: M44-modified V NTAA target peptides; test: encoding assay; P2 E
[50] = target: M44-modified L NTAA target peptides (M44-L-P2-peptide); test: encoding assay; P2 E
[51] = target: M44-modified D NTAA target peptides; test: encoding assay; P2 E
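Further: fraction of recording tags encoded.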

B1: engineered M44-A binder (SEQ ID NO: 42) (designed binder, not shown: small tags and cut ends; large carriers)
chain: QVSVQPNFQQDKFLGRWFVAGLASNSSWDREKVAALSGAKMVVAPATDGGLNVTRTMLRKNQCETYTGLLQPAGSLGSYSWRSPHPGSTGSESVVETDYDQYALVYGQGSKGPGEDLRAAALWSRTQTPRAELKEKFTAFSKAQGFTEDTIVFLPQTDKCMTEQ
- encoding yield [1]: 0.03
- encoding yield [2]: 0.02
- encoding yield [3]: 0.03
- encoding yield [4]: 0.03
- encoding yield [5]: 0.04
- encoding yield [6]: 0.03
- encoding yield [7]: 0.02
- encoding yield [8]: 0.05
- encoding yield [9]: 0.04
- encoding yield [10]: 0.02
- encoding yield [11]: 0.04
- encoding yield [12]: 0.04
- encoding yield [13]: 0.24
- encoding yield [14]: 0.05
- encoding yield [15]: 0.04
- encoding yield [16]: 0.05
- encoding yield [17]: 0.01
- encoding yield [18]: 0.03
- encoding yield [19]: 0.05
- encoding yield [20]: 0.03
- encoding yield [21]: 0.1
- encoding yield [22]: 0.2
- encoding yield [23]: 0.1
- encoding yield [24]: 0.03
- encoding yield [25]: 0.02
- encoding yield [26]: 0.12
- encoding yield [27]: 0.08
- encoding yield [28]: 0.01
- encoding yield [29]: 0.1
- encoding yield [30]: 0.02
- encoding yield [31]: 0.04
- encoding yield [32]: 0.03
- encoding yield [33]: 0.11
- encoding yield [34]: 0.03
- encoding yield [35]: 0.03
- encoding yield [36]: 0.02
- encoding yield [37]: 0.06
- encoding yield [38]: 0.05
- encoding yield [39]: 0.03
- encoding yield [40]: 0.02
- encoding yield [41]: 0.05
- encoding yield [42]: 0.03
- encoding yield [43]: 0.02
- encoding yield [44]: 0.01
- encoding yield [45]: 0.02
- encoding yield [46]: 0.04
- encoding yield [47]: 0.03
- encoding yield [48]: 0.02
- encoding yield [49]: 0.06
- encoding yield [50]: 0.04
- encoding yield [51]: 0.03
